# Reference: patent publication US20210163606A1 (ATYR PHARMA, published 2021)
# Where a chain is given by its changes, count along the chain named.
# T1: mouse NRP2 I383V on transfected Expi293 cells (Mouse, UniProt O35375 21-931)
# T1 construct: whole, on cells; also called 1383V
# T1 sequence (looked up): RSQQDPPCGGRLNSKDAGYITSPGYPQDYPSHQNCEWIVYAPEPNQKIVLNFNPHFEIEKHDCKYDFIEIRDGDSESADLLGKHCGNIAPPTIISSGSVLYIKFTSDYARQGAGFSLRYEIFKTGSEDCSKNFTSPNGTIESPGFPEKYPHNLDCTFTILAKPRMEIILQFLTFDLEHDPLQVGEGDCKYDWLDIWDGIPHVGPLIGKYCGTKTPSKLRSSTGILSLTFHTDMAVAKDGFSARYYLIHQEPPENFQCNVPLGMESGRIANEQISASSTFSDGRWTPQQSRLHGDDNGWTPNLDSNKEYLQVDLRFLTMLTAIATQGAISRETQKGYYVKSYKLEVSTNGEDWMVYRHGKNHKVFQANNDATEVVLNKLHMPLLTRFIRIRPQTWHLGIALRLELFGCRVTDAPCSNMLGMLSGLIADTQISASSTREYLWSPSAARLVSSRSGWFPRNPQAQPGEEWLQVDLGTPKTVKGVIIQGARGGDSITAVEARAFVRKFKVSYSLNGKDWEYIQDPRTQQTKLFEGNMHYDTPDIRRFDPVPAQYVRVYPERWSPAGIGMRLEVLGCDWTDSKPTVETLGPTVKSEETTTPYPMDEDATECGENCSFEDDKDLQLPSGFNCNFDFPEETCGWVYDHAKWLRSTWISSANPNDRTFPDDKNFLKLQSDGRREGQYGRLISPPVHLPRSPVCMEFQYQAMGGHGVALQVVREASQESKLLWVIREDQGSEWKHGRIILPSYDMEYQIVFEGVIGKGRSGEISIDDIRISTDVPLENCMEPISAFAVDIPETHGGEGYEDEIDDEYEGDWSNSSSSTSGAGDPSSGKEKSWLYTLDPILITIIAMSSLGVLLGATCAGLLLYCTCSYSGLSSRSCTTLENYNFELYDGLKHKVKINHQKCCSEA
# T2: mouse NRP2 M400A on transfected Expi293 cells (Mouse, UniProt O35375 21-931)
# T2 construct: whole, on cells
# T2 sequence (looked up): T1 sequence (looked up) with V363I, M380A
# B1: aNRP2-10v10 (antibody, V domains shown)
# VH: EVQLVQSGAEVKKPGATVKISCKVSGFNIKDYYVHWVQQAPGKGLEWMGRIDVEDDETKYAPKFQGRVTITADTSTDTAYMELSSLRSEDTAVYYCATPIYGAREAWFAYWGQGTLVTVSS
# VL: DIQMTQSPSSLSASVGDRVTITCTASSSVSSSYLHWYQQKPGKAPKLLIYRTSNLASGVPSRFSGSGSGTDFTLTISSLQPEDFATYYCHQYYRSPPTFGGGTKVEIK
# Key:
# [1] = biological target: T1, mouse NRP2 I383V on transfected Expi293 …; assay: flow cytometry, aNRP2-10v10 at 10 nM on transfected Expi293 cells gated on live, single, NRP2 expressing cells [panel 11B]
# Protocol: (§1) FIGS. 11A-11B show the measurement of antibody binding to Expi293 cells over-expressing NRP2. […] Gating for NRP2 over-expressing cells is shown.
# (§2) Human NRP2a (version 2; see Table N1) and mouse NRP2v2 cDNAs were obtained from Origene. […] Human and mouse NRP2, expression vectors, along with expression vectors encoding all 6 mutants were transfected into Expi293 cells at 1 million cells/mL, by standard techniques. Approximately 40 hours post transfection cells were co-stained with aNRP2-10v10, and a species agnostic anti-NRP2 a1 specific binding antibody.
# [2] = biological target: T2, mouse NRP2 M400A on transfected Expi293 …; assay: as above
# Protocol: as §1, §2
binder,measurement,setting,value
B1,binding result,[1],no binding (tested: 10 nM)
same,binding result,[2],no binding (tested: 10 nM)
